Test results reported in article PMC10948360.

What was measured:
[1] = molecular target: Full-length kinesin heavy chain (Khc FL), unlabeled (Drosophila) (UniProt P17210); experiment: mass photometry; coexpressed, copurified Khc–Tm1 complex at 20 nM in PBS
[2] = molecular target: SNAP-tagged full-length kinesin heavy chain (Khc FL), Alexa Fluor 647-labeled (Drosophila) (UniProt P17210); experiment: single-molecule TIRF colocalisation and motility assay on microtubules; Khc RNP mixes assembled at 500 nM of each component, diluted to 6.25 nM in BRB12 with 2.5 mM MgATP; taxol-stabilized microtubules immobilized by biotin-streptavidin; Cy3-osk 3′ UTR present
[3] = molecular target: SNAP-tagged full-length kinesin heavy chain (Khc FL), Alexa Fluor 647-labeled (UniProt P17210); experiment: as above; settings: other: single-molecule TIRF colocalisation and motility assay on microtubules
[4] = molecular target: SNAP-tagged full-length kinesin heavy chain (Khc FL), Alexa Fluor 647-labeled (Drosophila) (UniProt P17210)

SNAP-tagged full-length kinesin heavy chain (Khc FL), Alexa Fluor 647-labeled (Drosophila), sequence (P17210 whole entry): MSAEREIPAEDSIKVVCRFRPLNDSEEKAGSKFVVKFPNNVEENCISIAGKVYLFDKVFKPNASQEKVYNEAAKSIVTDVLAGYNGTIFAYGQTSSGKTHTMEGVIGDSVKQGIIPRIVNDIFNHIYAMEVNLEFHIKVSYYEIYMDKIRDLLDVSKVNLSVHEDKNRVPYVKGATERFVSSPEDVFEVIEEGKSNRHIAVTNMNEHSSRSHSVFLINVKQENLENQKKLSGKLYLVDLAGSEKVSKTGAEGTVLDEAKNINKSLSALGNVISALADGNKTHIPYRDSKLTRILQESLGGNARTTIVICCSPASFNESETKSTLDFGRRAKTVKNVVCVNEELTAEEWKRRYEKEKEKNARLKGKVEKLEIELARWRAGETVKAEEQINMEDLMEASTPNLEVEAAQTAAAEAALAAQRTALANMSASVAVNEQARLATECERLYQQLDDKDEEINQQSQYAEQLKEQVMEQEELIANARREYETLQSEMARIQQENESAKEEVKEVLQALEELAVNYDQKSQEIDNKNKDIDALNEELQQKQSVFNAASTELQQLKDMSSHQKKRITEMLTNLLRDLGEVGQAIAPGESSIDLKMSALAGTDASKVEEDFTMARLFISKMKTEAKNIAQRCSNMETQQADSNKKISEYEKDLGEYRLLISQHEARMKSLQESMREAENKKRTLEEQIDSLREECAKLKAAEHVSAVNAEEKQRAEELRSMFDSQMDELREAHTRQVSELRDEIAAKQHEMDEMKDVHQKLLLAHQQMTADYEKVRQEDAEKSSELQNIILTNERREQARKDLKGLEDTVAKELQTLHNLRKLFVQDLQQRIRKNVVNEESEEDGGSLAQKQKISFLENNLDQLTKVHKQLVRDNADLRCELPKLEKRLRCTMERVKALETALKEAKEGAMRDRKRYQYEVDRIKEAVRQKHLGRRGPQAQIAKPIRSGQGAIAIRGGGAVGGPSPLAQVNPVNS
Full-length kinesin heavy chain (Khc FL), unlabeled (Drosophila), sequence (P17210 whole entry): as above
SNAP-tagged full-length kinesin heavy chain (Khc FL), Alexa Fluor 647-labeled, sequence (P17210 whole entry): as above

Full-length Tm1-I/C (Tm1 FL) coexpressed and copurified with Khc FL (natural protein)
stoichiometry N [1]: 2 Khc per Tm1

SNAP-Tm1 1-335, fluorescently labeled (domain or fragment)
percent of Khc signals colocalized with Tm1 signals [2]: 71%

SNAP-tagged full-length Tm1-I/C (Tm1 FL), Alexa Fluor 488-labeled
percent of Khc molecules bound to Tm1, corrected for the labeling efficiency of Tm1 [3]: ~95% of Khc molecules were bound to Tm1

SNAP-tagged full-length Tm1-I/C (Tm1 FL), Alexa Fluor 488-labeled (natural protein)
mean velocity of microtubule-associated Khc FL complexes in the TIRF motility assay in the presence of Tm1 FL (0.240 µm s^−1 without Tm1) [4]: 0.099 µm s^−1 | percent of Khc signals colocalizing with Tm1 signals [2]: 44.6%
